Assay: soluble on expression in E. coli; label from the status in PepcDB or PDB records

Row | Sequence | soluble on expression in E. coli
1 | MAALASSLIRQKREVREPGGSRPVSAQRRVCPRGTKSLCQKQLLILLSKVRLCGGRPARPDRGPEPQLKGIVTKLFCRQGFYLQANPDGSIQGTPEDTSSFTHFNLIPVGLRVVTIQSAKLGHYMAMNAEGLLYSSPHFTAECRFKECVFENYYVLYASALYRQRRSGRAWYLGLDKEGQVMKGNRVKKTKAAAHFLPKLLEVAMYQEPSLHSVPEASPSSPPAPLEHHHHHH | not soluble
2 | MAALRNGLEGSSEETSFHDESLQDDREEIENNSYHMHPAGIILTKVGYYTIPSMDDLAKITNEKGECIVSDFTIGRKGYGSIYFEGDVNLTNLNLDDIVHIRRKEVVVYLDDNQKPPVGEGLNRKAEVTLDGVWPTDKTSRCLIKSPDRLADINYEGRLEAVSRKQGAQFKEYRPETGSWVFKVSHF | soluble
3 | MAALRVPLSQQQLEQLKANKKWGEYVEAQAGQKYEHFTSPYKQSMLTVKEWIMPQGLVIYVRTDDGTYPARVVNAGPDNICVRIVKANKSDPEPETQISYDQVIKSTEVLKMEPLKFKWIRKKTDNLYSIEAFQNLSGFFNKKVFELLKKGDFMEYQHDDEPWKCTIVEIIENHNGLIFIRNGLFVRCVHMFSPFCHELGWADKLKETNDERAAGMTYKILIKLENDRDQRVIVDRHIFRNNTISPHRFQDLQVLVYLEEDHFYLAHVKCKTRKTGLTDSYFFQISRGTELVRDSLLSDNKMPVQFHLNDARIFGYRDLERLHFPIDLPDGVQKIEGESNVDAYIRTYCLTDKEKARVPRLNESEKRAMFDRKILSNEIGVHMKHGAMLRDSKFNPTAGSLTPWAGTKCAEVSWFLPSSGRTRNRRADLLAARVVKYTEHIAHLYVARLDKTIYMHVADPRLHPAGFADGVNLPIEYSDAFAKDADIEIQISQLEETLDNLACEQDSTKDQN | not soluble
4 | MAASVEQREGTIQVQGQALFFREALPGSGQARFSVLLLHGIRFSSETWQNLGTLHRLAQAGYRAVAIDLPGLGHSKEAAAPAPIGELAPGSFLAAVVDALELGPPVVISPSLSGMYSLPFLTAPGSQLPGFVPVAPICTDKINAANYASVKTPALIVYGDQDPMGQTSFEHLKQLPNHRVLIMKGAGHPCYLDKPEEWHTGLLDFLQGLQ | soluble
5 | MAATVDTMSEEVKRLIALYELTPHPASGGWFRETYRSDVQVEAEGFDGKRSVLTMIYYLMQAGQPDPFHRVKSDETFVHNLGGSMKIHMIHPDGSYSCSILGNPLEHPEARHQVVVPRRVWFAQEVDGYCLASVLVAPGFDFKDFSLGKREELIKEYPQHRDVIMRCTSSDP | soluble
6 | MAAVSEFRLLQLPERAQRISLSHMSYNSIFSLSLCSTKKNKRPQGVPIRTLTYEGIEITSDRINRKHPVSDTFLSKAGFLDFYNCTYKSSQFIHKFLIHNTTTVFTRGVPRYNLNDLLVSNGQKIYVQVGRGIIFLEKDVNKFLKHWIRGSNRELKSLAFRAPMNMEIEHAIETILKGICYKDAREEDAASIKLVHICNGNTFKHPIIKISGFRIKRFDGTNATVVIRLLNANSVCFTSYVLHFLHNTSIMAAVSPFRLLQLPQRAQRISLSHMSSVSVFSLSLCATKNTKDLVRSLNLKCIRLCLEFFDDLILSICFEGCIIDFYLYMLNSSQKITPGLCAPKNVQVSTNDVKNFKWERPNLKFRNWIDHFLYILNISTLDVAMGKGVRVKKLSYHILDMTSNETNRTNSVNDTFLSKAEFIVLSNCTYETSQSIHKFLICNNATLFSNVFSPYNLNDLLISNCQNLLVNVDRGNIFLGQDVNKFLKHWIRGSNVTLKCLALEAPMNMERELVIETILEGIDYKVKEEEVSVYKKMLDIFNHGNPSITKIRGFRITRFDGTNCDVVIRTCNPSVMRYSLNMFIF | not soluble
7 | MAAYKDLTKEELLELKSGLQAQFEEVKARGLKLDMSRGKPAAAQLNLSMEMMNILNSGTDLVCEDGVDCRNYGGLDGIAEAKQLLADMMEVPKDNVIVFGNSSLNVMYDTVARAMTHGIMGSTPWCKLDKVKFLCPVPGYDRHFAITEHFGIEMINVPMTATGPDMDLVEKLVSEDPAIKGIWCVPKYSNPQGITYSDETVYRFANLKPAAEDFRIFWDNAYCVHHLYEDKQDYLLEILMECKKAGNQDMVYKFSSTSKISFPGSGIAAIAASDANLADIRNMMKVQTIGHDKVNQLRHVRFFKDIHGIVEHMKKHADIMRPKFETVINTLERELGGLEIGSWIAPRGGYFISFDAMEGCAKAIVAKAKEAGLVMTGAGATFPYGKDPKDSNIRIAPSYPTPEELAVAAEIFVLSVKLVSIDKLLKNL | not soluble
8 | MAAYRADDDYDFLYKVVLIGDSGVGKSNLLSRFTRNEFSLESKSTIGVEFATRSIHVDEKIVKAQIWDTAGQERYRAITSAYYRGAVGALLVYDVTRHVTFENVERWLKELRDHTEANIVIMLVGNKADLRHLRAVSTEDAKAFAERENTFFMETSALEALNVENAFTEVLSQIYRVASKKALDIGDDHTTLPKGQSINVGSKDDVSEVKKVGCCSS | soluble
9 | MADEKMSEFTDEELNKKVKELQDAVIEKVRTEAETPAVSGGYPGSNAYRPELDRVPSREEILERISWLREMIDDILKPKPSDFDPLIEKTEKLRDLFGVESHQPGGDSRLRNIDTSKNAIQQWDGAFADNLAEKYFAPLEDVRGNHGRMAKVLNENAVAMKATYVHARGQAKRTLDDGVKAIEAIVDSKGSDLKILLAILTGATSLITPLLPSKTAVQLGSAGLSTLLSNLGEAGPEEQEEVPLGADTPEGVMDNVKEALEKVKTKRGEDEDSIIKAVNDSEKAIYERMTKSTHQTEDDPIYAPRPTIMDSSKPSEGLTKD | not soluble
10 | MADFARSLSITTPEEMIEKAKGETAYLPCKFTLSPEDQGPLDIEWLISPADNQKVDQVIILYSGDKIYDDYYPDLKGRVHFTSNDLKSGDASINVTNLQLSDIGTYQCKVKKAPGVANKKIHLVVLVK | soluble
11 | MADILLLDNVDSFTYNLVDQLRASGHQVVIYRNQIGAEVIIERLQHMEQPVLMLSPGPGTPSEAGCMPELLQRLRGQLPIIGICLGHQAIVEAYGGQVGQAGEILHGKASAIAHDGEGMFAGMANPLPVARYHSLVGSNIPADLTVNARFGEMVMAVRDDRRRVCGFQFHPESILTTHGARLLEQTLAWALAK | soluble
12 | MADIPLSGKPRTQVLRWQRQNWVAGLRWEEKQKSVRRAPVQRRGVLNVVLTVKQGKSRLTALGQIEAGWRHQKLYSLAALFSQQCTPNGYGVYQLDDGRQVFLATVKGMPSPMADVIGTPDQIIRARELFLSFNPAPEDGWTIPSSPEFPLSWNTLVGQVSSAQLRFARVAGVSNPLRPYGAGVLSVAALLGGAVWWSRLPEPPVAPVVQELPAPVQDVFKKTPEPVYLPHPWADMPVARHFLNRCQRWRAAVPVSLDRWRLERIRCSAEGLETVYQRQPGGTAAGFAERVKQVFKRTPVFNLVSGGNEGVVFIPWAKFTLQDETAPDAGTQLMQAVSWFQSRQVSFSLSLEHHHHHH | not soluble
13 | MADKSADIQTPAPAANTSISATQQPAIQQPNVSGTVWIRQKVALPPDAVLTVTLSDASLADAPSKVLAQKAVRTEGKQSPFSFVLSFNPADVQPNARILLSAAITVNDKLVFITDTVQPVINQGGTKADLTLVPVQQTAVPVQASGGATTTVPSTSPTQVNPSSAVPAPTQYLEHHHHHH | soluble
14 | MADLLNVLKDKLSGKNVKIVLPEGEDERVLTAATQLQATDYVTPIVLGDETKVQSLAQKLDLDISNIELINPATSELKAELVQSFVERRKGKATEEQAQELLNNVNYFGTMLVYAGKADGLVSGAAHSTGDTVRPALQIIKTKPGVSRTSGIFFMIKGDEQYIFGDCAINPELDSQGLAEIAVESAKSALSFGMDPKVAMLSFSTKGSAKSDDVTKVQEAVKLAQQKAEEEKLEAIIDGEFQFDAAIVPGVAEKKAPGAKLQGDANVFVFPSLEAGNIGYKIAQRLGGYDAVGPVLQGLNSPVNDLSRGCSIEDVYNLSIITAAQALQ | not soluble
15 | MADLLPPLTAAQVDAKTKVDEKVDYSNLPSPVPYEELHREALMSLKSDNFEGLRFDFTRALNQKFSLSHSVMMGPTEVPAQSPETTIKIPTAHYEFGANYYDPKLLLIGRVMTDGRLNARLKADLTDKLVVKANALITNEEHMSQAMFNFDYMGSDYRAQLQLGQSALIGATYIQSVTNHLSLGGEIFWAGVPRKSGIGYAARYETDKMVASGQVASTGAVVMNYVQKISDKVSLATDFMYNYFSRDVTASVGYDYMLRQARVRGKIDSNGVASALLEERLSMGLNFLLSAELDHKKKDYKFGFGLTVG | not soluble
16 | MADLPSISLITATYNAAQHLPGLIESVRQQSDRAFEWIVIDGASEDGTLDLIRGAQDVITDYVSEPDFGIFHALNKGIQRATGDYYLVVGADDRLDPLAIANYKQAAASSQADLISAYIYSEKKAIIKPTGGAIWHHGVQAFITTQSVGTLIKRNLHEHYGYYSHYYPTAADALFILKVQQGGGKITTAEFIAGQYNTKGFSYRYKANLLCELFLIQKEFFPKSIQLLLLIYRLIKNYRYLLEHHHHHH | not soluble
17 | MADPKGFLTTPREEWPRRPAGERVRDWDEVYVPGALLPIVGRQADRCMDCGVPFCHEACPLGNLIPEWNDLVSRSDWRAASERLHATNNFPEFTGRLCPAPCEAGCVLAINQPAVTIKNVECAIADTAWEEGFVPPLPPERLSGRTVAVIGSGPAGLAAAQQLTRAGHTVAVYERDDRIGGLLRYGIPAFKMEKRHLERRVGQMRAEGTRFRTSAAVGRDVDAAALRTRYDAVVIATGATAWRELTVPGRELAGVHQAMEYLPLANRVCEGDLERSPLSAAGRHVVVVGGGDTGADCLGTAVREGAASVTQLDIYARPGAERDERAEPWPTYPRLYRLSAAHEEARDLRSAPAADADARLFAASTLRFTGDERGHVRALHLVGVDTGRRPLPGSERSLPADLVLLALGFSGPDRHDGLVDGLGLDMEPRGTITRDRGFATNVPGVFAAGDAARGQSLVVWAIAEGRAVAAAVDRHLSGGSTRLPAPVGPYDRPMTALEHHHHHH | not soluble
18 | MADPNGFLNYPRNDNPYRELAERIKDFAELQVPLSTEERQKQAARCMHCDVPFCHQGIFYGGKRAVSGCPNDNHIPEWNDLIYRGLQRKAYERLILTNPFPEFTGRVCPAPCEKSCAEALNGAGVTIKDNERFLGDLGNDEGWVAEIGKAAEPTGYKIAIIGSGPAGLSAAWRLNQLGHSVTVFEKSDRLGGLLMYGIPNMKLDKKVVQKRIDLMTELGVTFVTNTEIGKTISYEDLSVNFDRIILAIGAGIPRDLNISGREAVGIRFAIDFLTETTKTVLEEGEDNISQSLKGKKVVVIGGGDTGNDCIGTAVRLGAASVSQLEITPSLPTDRLDNNPWPEWPMTLRAGYGQKEAEFVGNTDLITYQMTATAFQTNAEGQLTGLKVAKVGPDFKALEGTEQVIEADLVLLAMGFVGTDTGLLDKFGIQEIYDDYRTNNDKVLVAGDARRGPSLVIWAIREGRKTAEIVDEQLIKVATALEHHHHHH | soluble

From the DeepSol protein solubility set
